Where a chain is given by its changes, count along the chain named.
T1: T7-RILP(L231A) (pEF-T7-RILP(L231A)) (mouse, UniProt Q5ND29 1-369)
T1 construct: RHD mutant; expressed in transfected RBL cells
T1 sequence (looked up): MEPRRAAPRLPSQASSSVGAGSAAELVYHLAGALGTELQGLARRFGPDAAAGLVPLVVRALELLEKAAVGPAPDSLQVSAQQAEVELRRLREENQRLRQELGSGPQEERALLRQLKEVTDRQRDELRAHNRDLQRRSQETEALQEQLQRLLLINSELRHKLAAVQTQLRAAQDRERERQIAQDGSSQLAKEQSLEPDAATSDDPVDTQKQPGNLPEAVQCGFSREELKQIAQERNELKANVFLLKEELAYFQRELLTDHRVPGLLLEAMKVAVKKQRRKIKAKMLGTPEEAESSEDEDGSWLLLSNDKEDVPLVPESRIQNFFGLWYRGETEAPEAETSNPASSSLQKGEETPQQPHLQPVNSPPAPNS

T2: endogenous Rab12 of RBL cells (rat, UniProt P35284 49-291, limits assumed)
T2 construct: Total Rab12 pulled down from cell lysates (blot reprobed with anti-Rab12)
T2 sequence (looked up): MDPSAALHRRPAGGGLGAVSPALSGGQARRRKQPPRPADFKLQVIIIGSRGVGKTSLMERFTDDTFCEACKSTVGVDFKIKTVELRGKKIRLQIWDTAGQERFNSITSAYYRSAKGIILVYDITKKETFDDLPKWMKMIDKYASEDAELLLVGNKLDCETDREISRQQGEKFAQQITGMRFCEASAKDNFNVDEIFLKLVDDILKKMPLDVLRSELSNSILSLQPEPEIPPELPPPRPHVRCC

T3: GFP-RILP-L1 (mouse RILP-like 1 in pEGFP-C1) (mouse, UniProt Q9JJC6 1-406)
T3 construct: Expressed in transfected RBL cells; tested in cell lysate; also called pEGFP-C1-RILP-L1; not shown: EGFP of the pEGFP-C1 vector
T3 sequence (looked up): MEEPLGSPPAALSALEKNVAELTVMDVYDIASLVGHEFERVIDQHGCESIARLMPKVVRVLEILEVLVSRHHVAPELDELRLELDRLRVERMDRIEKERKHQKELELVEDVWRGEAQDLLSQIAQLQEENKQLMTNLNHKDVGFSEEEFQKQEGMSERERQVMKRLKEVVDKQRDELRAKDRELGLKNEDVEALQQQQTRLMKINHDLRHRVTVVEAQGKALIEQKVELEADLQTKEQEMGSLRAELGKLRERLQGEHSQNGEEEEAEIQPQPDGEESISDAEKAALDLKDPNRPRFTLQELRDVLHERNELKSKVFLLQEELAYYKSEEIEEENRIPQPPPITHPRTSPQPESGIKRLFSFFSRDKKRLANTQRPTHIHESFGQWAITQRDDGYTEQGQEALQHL

T4: T7-RILP-L1 (pEF-T7-RILP-L1) (mouse, UniProt Q9JJC6 1-406)
T4 construct: The pEF-T7 plasmid was 'prepared as previously described'; also called T7-tagged RILP-L1; RILP-like 1
T4 sequence (looked up): T3 sequence (looked up)

T5: T7-RILP(E233A) (pEF-T7-RILP(E233A)) (mouse, UniProt Q5ND29 1-369)
T5 construct: RHD mutant; expressed in transfected RBL cells
T5 sequence (looked up): T1 sequence (looked up) with A231L, E233A

B1: GST-RILP-L2 (pGEX-4T-3-RILP-L2) (other, mouse, UniProt Q99LE1 1-197, looked up)
chain: MEDHPVREEEDGEEDEGALAKSPLQLTTDDVYDISYVVGRELMALGSDPRVTRLQFKIVRVMEMLETLVNEGSLAVEELRMERDNLKQEVEGLRKAGVSGAQVNLGPDKMVVDLTDPNRPRFTLQELREVLQERNKLKSQLLLVQEELQCYRSGLLPPRETPGGRREKDAVVAMGNGEKEERTIMKKLFSFRSGKHT
notes: Immobilized on glutathione agarose beads; not shown: glutathione S-transferase (GST) encoded by the pGEX-4T-3 vector
B2: T7-RILP-L2 (pEF-T7-RILP-L2) (other, mouse, UniProt Q99LE1 1-197, looked up, not shown: small tags and cut ends)
chain: B1 chain
notes: The pEF-T7 plasmid was 'prepared as previously described'; also called T7-tagged RILP-L2; RILP-like 2
B3: GFP-RILP (mouse RILP in pEGFP-C1) (other, UniProt Q5ND29 1-369, looked up)
chain: T1 sequence (looked up) with A231L
notes: Expressed in transfected RBL cells; tested in cell lysate; also called GFP-fused RILP; pEGFP-C1-RILP; not shown: EGFP of the pEGFP-C1 vector
B4: GST-Rab12 (pGEX-4T-3-Rab12) (other, mouse, UniProt P35283 49-291, looked up)
chain: T2 sequence (looked up) with G15S, S214N
notes: Immobilized on glutathione agarose beads; pulldown in the presence of 0.5 mM GTPgammaS; also called immobilized Rab12; not shown: glutathione S-transferase (GST) encoded by the pGEX-4T-3 vector

Experiments:
[1] = target: T7-RILP (pEF-T7-RILP) (mouse) (UniProt Q5ND29); assay: cell-based or functional assay
[2] = target: T1, T7-RILP(L231A) (pEF-T7-RILP(L231A)); assay: cell-based or functional assay
[3] = target: T2, endogenous Rab12 of RBL cells; assay: GST pulldown of endogenous Rab12 from RBL cell lysates, anti-Rab12 immunoblot
Description: Cells were then lysed and 500 μg of cell lysate were incubated overnight at 4° C. with either GST, GST-RILP, GST-RILP-L1 or GST-RILP-L2, immobilized on glutathione agarose beads, as indicated. At the end of the incubation period, beads were sedimented by centrifugation at 5000×g for 5 minutes at 4° C., washed four times with buffer containing 50 mM Hepes pH 7.4, 150 mM NaCl, 1 mM MgCl₂, 0.2% Triton X-100, protease inhibitor mixture, 1 mM PMSF, 2 mM Na₃VO₄, 10 mM NaPPi and 80 mM β-glycerophosphate and suspended in 1× sample buffer and boiled for 7 minutes. Proteins were resolved by SDS-PAGE and analyzed by immunoblotting with the anti-phosphoRab12 antibodies, followed by reprobing with anti Rab12 antibodies, as indicated. Representative blots are shown. Similar results were obtained in two separate experiments.
Next, it was assessed whether […] any impact on Rab12 interactions with its RILP family effectors. To this end, lysates derived from resting RBL cells or RBL cells that were triggered with either IgE/Ag or Ion/TPA, were subjected to pulldown assays by chimeric proteins consisting of GST-fused to either RILP, RILP-L1, or RILP-L2, or control GST. […] Therefore, under these conditions, the efficacy of Rab12-effector interactions was RILP-L1>RILP>>>RILP-L2.

[4] = target: T3, GFP-RILP-L1 (mouse RILP-like 1 in …); assay: co-immunoprecipitation from co-transfected RBL cell lysates, IP anti-GFP, blot anti-T7
Description: (§1) FIGS. 1A, 1B show the results of immunoprecipitations in which cell lysates derived from the rat mast cell line RBL-2H3, herein referred to as RBL cells, that were co-transfected with 17.5 μg of pEGFP plasmid encoding either RILP, RILP-L1 or RILP-L2 and 17.5 μg of pEF plasmid encoding either T7-RILP, T7-RILP-L1 or T7-RILP-L2, as indicated, were subjected to immunoprecipitation with rabbit polyclonal antibodies directed against GFP. FIGS. 1C, 1D show the results of immunoprecipitations in which the RBL cell lysates described above were subjected to immunoprecipitation with mouse monoclonal antibodies directed against the T7 epitope. Immune complexes were then analyzed by SDS-PAGE and immunoblotting with mouse monoclonal anti T7 antibodies, followed by reprobing with polyclonal anti GFP antibodies (FIGS. 1A, 1B), or with polyclonal anti GFP antibodies followed by reprobing with monoclonal anti T7 antibodies (FIGS. 1C, 1D), as indicated. Input=10% of total protein.
(§2) RBL cell lysates (500 μg) prepared in buffer A (50 mM Hepes pH 7.4, 250 mM NaCl, 1 mM MgCl₂, 1% Triton X-100, protease inhibitor mixture, 1 mM PMSF, 2 mM Na₃VO₄) were incubated overnight at 4° C. with either rabbit polyclonal anti-GFP antibodies (2 μg) or mouse monoclonal anti-T7 antibodies (1 μg). Protein A/G-Sepharose (50% v/v) was then added for 1.5 h at 4° C. Immune complexes were collected, washed three times with buffer B (50 mM Hepes pH 7.4, 150 mM NaCl, 1 mM MgCl₂, 0.2% Triton X-100, protease inhibitor mixture, 1 mM PMSF, 2 mM Na₃VO₄), and resuspended in 1× sample buffer, and boiled for 7 min. Proteins were resolved by SDS-PAGE and analyzed by immunoblotting with the desired antibodies.

[5] = target: B3; assay: as above
Description: as §1, §2

[6] = target: T4, T7-RILP-L1 (pEF-T7-RILP-L1); assay: as above
Description: as §1, §2

[7] = target: T5, T7-RILP(E233A) (pEF-T7-RILP(E233A)); assay: GST-Rab12 pulldown from RBL cell lysates with GTPgammaS, anti-T7 immunoblot
Description: (§3) Bound proteins were eluted by sample buffer, and analyzed by SDS-PAGE and immunoblotting, using monoclonal antibodies directed against T7. Input=10% of total protein. A representative blot is shown. […] The results are the average pulldown±SEM derived from three independent experiments. *P[(T7-RILP/T7-RILP(L231A)]=0.0480, *P[T7-RILP/T7-RILP(E233A)]=0.0498.
(§4) Pulldown assays were performed as previously described 2. Briefly, 20 μg of GST fusion proteins or control GST immobilized on Glutathione Agarose beads were incubated for 18 hours at 4° C. with RBL cell lysates (500 μg) prepared in buffer C (50 mM Hepes pH 7.4, 150 mM NaCl, 1 mM MgCl₂, 1% TritonX100, 1 mM PMSF, protease inhibitor mixture, 2 mM Na₃VO₄) in the presence of 0.5 mM GTPγS. At the end of the incubation period, beads were sedimented by centrifugation at 5000×g for 5 minutes at 4° C., washed 4 times in buffer C with 0.2% TritonX100, and finally suspended in sample buffer, boiled for 7 minutes, and subjected to SDS-PAGE and immunoblotting. In pulldown experiments of endogenous phosphoRab12, cell lysates were prepared in buffer D (50 mM Hepes pH 7.4, 150 mM NaCl, 1 mM MgCl₂, 1% TritonX100, 1 mM PMSF, protease inhibitor mixture, 2 mM Na₃VO₄, 10 mM NaPPi and 80 mM β-glycerophosphate) and the pulldown assay was conducted in the absence of GTPγS. Beads were washed in buffer D with 0.2% TritonX100.

[8] = target: T1, T7-RILP(L231A) (pEF-T7-RILP(L231A)); assay: as above
Description: as §3, §4

Molecule: GFP-Rab12 (pEGFP-C1-Rab12) (from UniProt P35283 49-291)
incidence of cells with perinuclear secretory granules (NPY-mRFP), confocal microscopy of RBL cells [1]: 99% | incidence of cells with scattered secretory granules (NPY-mRFP), confocal microscopy of RBL cells [2]: 97%

Molecule: B1
fold increase in Rab12 pulldown, Ion/TPA-triggered against resting cells [3]: 4 fold

Molecule: B2
binding result [4]: no binding | binding result [5]: no binding

Molecule: B3
binding result [6]: no binding

Molecule: B4
binding result [7]: no binding | binding result [8]: no binding
